A short description of data set [1]: OTA detoxification activity assay (specific activity, fluorescence reduction ex/em 390/450 nm). The class given is biochemical. The conditions noted are these: SEQ ID NO: 1 = 100%. The gist of the method:
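Recombinant enzyme preparation with 200 ng/mL OTA in 100 mM sodium phosphate, at pH 6.0 and pH 7.5, 37° C. Degradation followed as the fall in fluorescence at ex/em 390/450 nm. Specific activity taken from the initial linear slope; one unit degrades 1 μmol OTA per min at a starting OTA of […].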

Data set [2] can be described thus: Thermostability assay: residual OTA detoxification activity after 10 min incubation at 45-99° C. (T50). It is filed as physicochemical. The conditions noted are these: 0.1 mg/mL protein in 20 mM Tris-HCl pH 7.5, residual OTA detoxification activity relative to 4° C. reference aliquot. An outline of the steps:
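T50 marks the temperature range at which half the starting OTA-detoxifying activity is lost, versus an unheated 4 °C reference. Samples were 0.1 mg/mL purified protein in 20 mM Tris-HCl pH 7.5, exposed for 10 min to 45, 55, 65, 75, 80, 85, 90, 95 or 99 °C.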

A value given as a limit tells only on which side of the number the result lay.

B1: 51 (protein)
chain: MTTRTRILTAFLSLLAANACAADAAPAAPHTVVLRAARMFDGASGKLVDHPQLTIVGNKIVRIAQGDKAEVPAGAEVVDLGDATLLPGFIDAHVHLSGQSSDNWYGDFFDNMMRFPAEQALYGAYYARITLEAGFTSVRDVGSTDWVALGLRNAIDAGKVPGPRMLVSNYGVGSTGGHADQDPIPPHKLPLAGPLQGVCNGPEECRAAVRYQIKYGANVIKFMPSGGVLSLSDPVDAPELSQDEMNAVIGESHAWGRKVAAHAHGDKAAKMAVAAGVDSIEHGSFIEDDTLRAMKAKNVYLVPTISAIAHVEEKIGTFPPVIAEKGRAAAAHLRQTFRHAVQIGVPIALGTDAGVGAHGSNAREFRYMVENGLTPAQALLAGTANAARLLGTFDRVGTLEAGKLADVVAVPGNPIADITVTERPLFVMKDGVVVRRDAVR
modifications: exemplary polypeptide
Regarding B1, in data set [1], the “Specific OTA detoxification activities in % compared to the enzyme of SEQ ID NO: 1, pH 6.0” value came to 46% and the “Specific OTA detoxification activities in % compared to the enzyme of SEQ ID NO: 1, pH 7.5” value amounted to 140%. The “T50 (temperature at which 50% of the initial activity was maintained)” value in data set [2] is 68-70 °C.

B2: 56 (protein)
chain: MTTRTRILTAFLSLLAANACAADAAPAAPHTVVLRAARMFDGASGKLVDHPQLTIVGNKIVRIAQGDKAEVPAGAEVVDLGDATLLPGFIDAHVHLSGQSSDNWYGDFFDNMMRFPAEQALYGAYYARITLEAGFTSVRDVGSTDWVALGLRNAIDAGKVPGPRMLVSNYAVGSTGGHADQDPIPPHKLPLAGPLQGVCNGPEECRAAVRYQIKYGANVIKFMPSGGVMSLSDPVDAPELSQDEMNAVIGESHAWGRKVAAHAHGDKAAKMAVAAGVDSIEHGSFIEDDTLRAMKAKNVYLVPTISAIAHVEEKIGTFPPVIAEKGRAAAAHLRQTFRHAVQIGVPIALGTDAGVGAHGSNAREFRYMVENGLTPAQALLAGTANAARLLGTFDRVGTLEAGKLADVVAVPGNPIADITVTERPLFVMKDGVVVRRDAVR
modifications: exemplary polypeptide
Consider B2, for which, in data set [1], the “Specific OTA detoxification activities in % compared to the enzyme of SEQ ID NO: 1, pH 6.0” value was 32% and the “Specific OTA detoxification activities in % compared to the enzyme of SEQ ID NO: 1, pH 7.5” value was 87%. Besides, in data set [2], the “T50 (temperature at which 50% of the initial activity was maintained)” value was 66-68 °C.

B3: 53 (protein)
chain: MTTRTRILTAFLSLLAANACAADAAPAAPHTVVLRAARMFDGASGKLVDHPQLTIVGNKIVRIAQGDKAEVPAGAEVVDLGDATLLPGFIDAHVHLSGQSSDNWYGDFFDNMMRFPAEQALYGAYYARITLEAGFTSVRDVGSTDWVALGLRNAIDAGKVPGPRMLVSNYAVGSTGGHADQDSIPPHKLPLAGPLQGVCNGPEECRAAVRYQIKYGANVIKFMPSGGVLSLSDPVDAPELSQDEMNAVIGESHAWGRKVAAHAHGDKAAKMAVAAGVDSIEHGSFIEDDTLRAMKAKNVYLVPTISAIAHVEEKIGTFPPVIAEKGRAAAAHLRQTFRHAVQIGVPIALGTDAGVGAHGSNAREFRYMVENGLTPAQALLAGTANAARLLGTFDRVGTLEAGKLADVVAVPGNPIADITVTERPLFVMKDGVVVRRDAVR
modifications: exemplary polypeptide
With B3, in data set [1], the “Specific OTA detoxification activities in % compared to the enzyme of SEQ ID NO: 1, pH 6.0” value came out at 64% and the “Specific OTA detoxification activities in % compared to the enzyme of SEQ ID NO: 1, pH 7.5” value is listed as 100%. For the same molecule, in data set [2], the “T50 (temperature at which 50% of the initial activity was maintained)” value is below 63.2 °C.

B4: 58 (protein)
chain: MTTRTRILTAFLSLLAANACAADAAPAAPHTVVLRAARMFDGASGKLVDHPQLTIVGNKIVRIAQGDKAEVPAGAEVVDLGDATLLPGFIDAHVHLSGQSSDNWYGDFFDNMMRFPAEQALYGAYYARITLEAGFTSVRDVGSTDWVALGLRNAIDAGKVPGPRMLVSNYAVGSTGGHADQDPIPPHKLPLAGPLQGVCNGPEECRAAVRYQIKYGANVIKFMPSGGVLSLSDPVDAPELSQDEMNAVIGESHAWGRKVAAHAHGDKAAKMAVAAGVDSIEHGSFIEDDTLRAMKAKNVYLVPTISGIAHVEEKIGTFPPVIAEKGRAAAAHLRQTFRHAVQIGVPIALGTDAGVGAHGSNAREFRYMVENGLTPAQALLAGTANAARLLGTFDRVGTLEAGKLADVVAVPGNPIADITVTERPLFVMKDGVVVRRDAVR
modifications: exemplary polypeptide
For the molecule B4, in data set [1], the “Specific OTA detoxification activities in % compared to the enzyme of SEQ ID NO: 1, pH 6.0” value was 6% and the “Specific OTA detoxification activities in % compared to the enzyme of SEQ ID NO: 1, pH 7.5” value was determined as 8%. Further, the “T50 (temperature at which 50% of the initial activity was maintained)” value in data set [2] is 72 °C.

B5: 55 (protein)
chain: MTTRTRILTAFLSLLAANACAADAAPAAPHTVVLRAARMFDGASGKLVDHPQLTIVGNKIVRIAQGDKAEVPAGAEVVDLGDATLLPGFIDAHVHLSGQSSDNWYGDFFDNMMRFPAEQALYGAYYARITLEAGFTSVRDVGSTDWVALGLRNAIDAGKVPGPRMLVSNYAVGSTGGHADQDPIPPHKLPLAGPLQGVCNGPEECRAAVRYQIKYGANVIKFMPSGGVVSLSDPVDAPELSQDEMNAVIGESHAWGRKVAAHAHGDKAAKMAVAAGVDSIEHGSFIEDDTLRAMKAKNVYLVPTISAIAHVEEKIGTFPPVIAEKGRAAAAHLRQTFRHAVQIGVPIALGTDAGVGAHGSNAREFRYMVENGLTPAQALLAGTANAARLLGTFDRVGTLEAGKLADVVAVPGNPIADITVTERPLFVMKDGVVVRRDAVR
modifications: exemplary polypeptide
In the case of B5, in data set [1], the “Specific OTA detoxification activities in % compared to the enzyme of SEQ ID NO: 1, pH 6.0” value amounted to 27% and the “Specific OTA detoxification activities in % compared to the enzyme of SEQ ID NO: 1, pH 7.5” value was 54%. Further, in data set [2], the “T50 (temperature at which 50% of the initial activity was maintained)” value is 64-66 °C.

B6: 57 (protein)
chain: MTTRTRILTAFLSLLAANACAADAAPAAPHTVVLRAARMFDGASGKLVDHPQLTIVGNKIVRIAQGDKAEVPAGAEVVDLGDATLLPGFIDAHVHLSGQSSDNWYGDFFDNMMRFPAEQALYGAYYARITLEAGFTSVRDVGSTDWVALGLRNAIDAGKVPGPRMLVSNYAVGSTGGHADQDPIPPHKLPLAGPLQGVCNGPEECRAAVRYQIKYGANVIKFMPSGGVLSLSDPVDAPELSQDEMNAVIGESHAWGRKVAAHAHGDKAAKMAVAAGVDSIEHGSFIEDDTLRAMKAKNVYLVPTISSIAHVEEKIGTFPPVIAEKGRAAAAHLRQTFRHAVQIGVPIALGTDAGVGAHGSNAREFRYMVENGLTPAQALLAGTANAARLLGTFDRVGTLEAGKLADVVAVPGNPIADITVTERPLFVMKDGVVVRRDAVR
modifications: exemplary polypeptide
For B6, in data set [1], the “Specific OTA detoxification activities in % compared to the enzyme of SEQ ID NO: 1, pH 6.0” value was 15% and the “Specific OTA detoxification activities in % compared to the enzyme of SEQ ID NO: 1, pH 7.5” value amounted to 16%. Further, in data set [2], the “T50 (temperature at which 50% of the initial activity was maintained)” value was 68-70 °C.

B7: 52 (protein)
chain: MTTRTRILTAFLSLLAANACAADAAPAAPHTVVLRAARMFDGASGKLVDHPQLTIVGNKIVRIAQGDKAEVPAGAEVVDLGDATLLPGFIDAHVHLSGQSSDNWYGDFFDNMMRFPAEQALYGAYYARITLEAGFTSVRDVGSTDWVALGLRNAIDAGKVPGPRMLVSNYAVGSTGGHADQDGIPPHKLPLAGPLQGVCNGPEECRAAVRYQIKYGANVIKFMPSGGVLSLSDPVDAPELSQDEMNAVIGESHAWGRKVAAHAHGDKAAKMAVAAGVDSIEHGSFIEDDTLRAMKAKNVYLVPTISAIAHVEEKIGTFPPVIAEKGRAAAAHLRQTFRHAVQIGVPIALGTDAGVGAHGSNAREFRYMVENGLTPAQALLAGTANAARLLGTFDRVGTLEAGKLADVVAVPGNPIADITVTERPLFVMKDGVVVRRDAVR
modifications: exemplary polypeptide
On to B7, for which, in data set [1], the “Specific OTA detoxification activities in % compared to the enzyme of SEQ ID NO: 1, pH 6.0” value stood at 16% and the “Specific OTA detoxification activities in % compared to the enzyme of SEQ ID NO: 1, pH 7.5” value was 44%. For the same molecule, in data set [2], the “T50 (temperature at which 50% of the initial activity was maintained)” value was below 63.2 °C.

B8: 59 (protein)
chain: MTTRTRILTAFLSLLAANACAADAAPAAPHTVVLRAARMFDGASGKLVDHPQLTIVGNKIVRIAQGDKAEVPAGAEVVDLGDATLLPGFIDAHVHLSGQSSDNWYGDFFDNMMRFPAEQALYGAYYARITLEAGFTSVRDVGSTDWVALGLRNAIDAGKVPGPRMLVSNYAVGSTGGHADQDPIPPHKLPLAGPLQGVCNGPEECRAAVRYQIKYGANVIKFMPSGGVLSLSDPVDAPELSQDEMNAVIGESHAWGRKVAAHAHGDKAAKMAVAAGVDSIEHGSFIEDDTLRAMKAKNVYLVPTISAVAHVEEKIGTFPPVIAEKGRAAAAHLRQTFRHAVQIGVPIALGTDAGVGAHGSNAREFRYMVENGLTPAQALLAGTANAARLLGTFDRVGTLEAGKLADVVAVPGNPIADITVTERPLFVMKDGVVVRRDAVR
modifications: exemplary polypeptide
On to B8, for which, in data set [1], the “Specific OTA detoxification activities in % compared to the enzyme of SEQ ID NO: 1, pH 6.0” value is 69% and the “Specific OTA detoxification activities in % compared to the enzyme of SEQ ID NO: 1, pH 7.5” value is given as 333%. Besides, the “T50 (temperature at which 50% of the initial activity was maintained)” value in data set [2] is 68-70 °C.

B9: 54 (protein)
chain: MTTRTRILTAFLSLLAANACAADAAPAAPHTVVLRAARMFDGASGKLVDHPQLTIVGNKIVRIAQGDKAEVPAGAEVVDLGDATLLPGFIDAHVHLSGQSSDNWYGDFFDNMMRFPAEQALYGAYYARITLEAGFTSVRDVGSTDWVALGLRNAIDAGKVPGPRMLVSNYAVGSTGGHADQDPIPPHKLPLAGPLQGVCNGPEECRAAVRYQIKYGANVIKFMPSGGALSLSDPVDAPELSQDEMNAVIGESHAWGRKVAAHAHGDKAAKMAVAAGVDSIEHGSFIEDDTLRAMKAKNVYLVPTISAIAHVEEKIGTFPPVIAEKGRAAAAHLRQTFRHAVQIGVPIALGTDAGVGAHGSNAREFRYMVENGLTPAQALLAGTANAARLLGTFDRVGTLEAGKLADVVAVPGNPIADITVTERPLFVMKDGVVVRRDAVR
modifications: exemplary polypeptide
Regarding B9, in data set [1], the “Specific OTA detoxification activities in % compared to the enzyme of SEQ ID NO: 1, pH 6.0” value is 33% and the “Specific OTA detoxification activities in % compared to the enzyme of SEQ ID NO: 1, pH 7.5” value amounted to 40%. The “T50 (temperature at which 50% of the initial activity was maintained)” value in data set [2] was below 63.2 °C.

The values above are taken from patent US20240352438A1, “MEANS AND METHODS FOR DETOXIFYING OCHRATOXIN A” (DSM Austria GmbH, priority 2021, published 2024).
